Positions count from the first letter of the chain named.
T1: murine CD103 (mouse, UniProt Q60677 20-1167)
T1 construct: whole, on cells; also called murine CD103+ T cells; mouse CD103
T1 sequence (looked up): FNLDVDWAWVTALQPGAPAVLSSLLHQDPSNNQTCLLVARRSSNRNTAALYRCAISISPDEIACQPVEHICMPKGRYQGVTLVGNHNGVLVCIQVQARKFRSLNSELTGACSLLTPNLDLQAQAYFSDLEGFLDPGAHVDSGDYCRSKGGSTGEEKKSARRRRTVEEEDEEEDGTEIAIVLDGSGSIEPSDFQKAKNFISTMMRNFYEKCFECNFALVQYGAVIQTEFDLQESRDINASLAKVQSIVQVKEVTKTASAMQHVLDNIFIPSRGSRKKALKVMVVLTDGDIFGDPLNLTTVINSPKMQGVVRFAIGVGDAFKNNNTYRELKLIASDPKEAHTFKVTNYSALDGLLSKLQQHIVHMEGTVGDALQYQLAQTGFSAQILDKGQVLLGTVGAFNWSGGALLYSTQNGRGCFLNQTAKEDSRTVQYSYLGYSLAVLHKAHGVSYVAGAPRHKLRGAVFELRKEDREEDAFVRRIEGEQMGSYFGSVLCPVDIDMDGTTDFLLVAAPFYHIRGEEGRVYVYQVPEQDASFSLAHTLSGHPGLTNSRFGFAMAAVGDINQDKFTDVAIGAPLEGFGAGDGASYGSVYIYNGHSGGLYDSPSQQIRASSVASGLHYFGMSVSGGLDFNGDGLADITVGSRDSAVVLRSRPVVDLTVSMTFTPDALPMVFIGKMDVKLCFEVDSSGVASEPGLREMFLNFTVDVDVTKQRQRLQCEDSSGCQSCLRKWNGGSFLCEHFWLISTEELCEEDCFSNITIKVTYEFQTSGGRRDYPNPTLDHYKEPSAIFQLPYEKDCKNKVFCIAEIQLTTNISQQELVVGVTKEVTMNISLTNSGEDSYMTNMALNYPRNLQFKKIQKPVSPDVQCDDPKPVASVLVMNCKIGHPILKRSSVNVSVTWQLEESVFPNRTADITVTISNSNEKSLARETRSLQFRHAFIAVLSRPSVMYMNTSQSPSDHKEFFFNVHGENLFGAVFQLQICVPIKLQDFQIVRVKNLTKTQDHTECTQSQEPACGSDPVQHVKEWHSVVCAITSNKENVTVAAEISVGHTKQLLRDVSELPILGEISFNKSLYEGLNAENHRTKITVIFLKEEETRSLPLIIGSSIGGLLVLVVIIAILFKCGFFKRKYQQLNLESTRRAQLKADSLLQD

B1: hCD103.05A (antibody, mouse IgG1, V domains shown)
VH: EVQLQQSGPELEKPGASAKISCKASGYSFTGYNMNWVKQSNGKSLEWIGNIDPYYGGTSYNQKFKGKATLTVDKSSSTAYMQLKSLTSEDSAVYYCARSFYGYDAGSPYNYAMDYWGQGTPVTVSP
VL: DIVMTQSHKFMSTSVGDRVSITCKASQDVGTFVAWYQQKPGQSPKLLIYWASTRHTGVPDRFTGSGSGTDFTLTISNVQSEDLADYFCHQYSSYPYTFGGGTQLEIK
notes: Also tested labelled with AF647, conjugated with Df and labelled with 89Zr; these are written under this molecule; also called clone 05A; hCD103.05 mAb
B2: hCD103.07A (antibody, mouse IgG1, V domains shown)
VH: EVQLQESGPSLVKPSQTLSLTCSVTGDSITSGYWNWIRKFPGNKLEYMGYITYSGSTYYNPSLKSRISITRDTSKNQYYLQLNSVTTEDTATYYCARNYYGSSSMDYWGQGTSVTVSS
VL: DIVMTQSQKFMSTSVADRVSVTCKASQNVGSDVAWYQQKPGQSPKSLIYSASYRYSGVPDRFTGSGSGTDFTLTISNVQSEDLAEYFCQQYNSYPSTFGGGTKLEIK
notes: also called clone 07A
B3: hCD103.01A (antibody, V domains shown)
VH: B2 VH with A96T, N98H, S103D, S104A
VL: DIVMTQSHKFMSTSVGDRVSITCKASQDVSIAVAWYQQRPGQSPKLLIYSASYRYTGVPDRFTGSGSGTDFTFTISSVQAEDLAVYYCQQHYSTPWTFGGGTKLEIK
notes: Also tested labelled with AF647, conjugated with Df and labelled with 89Zr; these are written under this molecule; also called clone 01A; hCD103.01 mAb
B4: hCD103.06A (antibody, mouse IgG1, V domains shown)
VH: QVQLQQPGSELVRPGASVKLSCKASGYTFTSYWMHWVKQRHGQGLEWIGNIYPGSGSTNYDEKFKSKGTLTVDTSSSTAYMHLSSLTSEDSAVYYCTRGVYDNPYYFDYWGQGTTLTVSS
VL: DIQMTQSSSNLSVSLGGRVTITCKASDHINNWLAWYQQKPGNAPRVLISGATSLETGVPSRFSGSGSGKDYTLSITSLQTEDVATYYCQQYWSIPLTFGAGTKLELK
notes: also called clone 06A; hCD103.06 mAb

target: T1, murine CD103; experiment: flow cytometry on mouse spleen and thymus cells
Description: Additional aliquots were stained with relevant isotype controls or as fluorescence minus one controls (“FMO” controls are cells stained with all the fluorophores minus one fluorophore; the relevant isotype controls contain either a directly labeled unspecific isotype antibody or an unspecific isotype antibody combined with secondary detection reagent). Percentage binding of fluorescently labeled mAbs was determined using flow cytometry. Maximum binding was set at 100%. […] Data analysis was performed with FlowJo v10 (Tree Star) and surface receptor levels were expressed as mean fluorescent intensity (MFI).

B1: no binding.
B2: no binding.
B3: no binding.
B4: no binding.

target: T2, human CD103 (integrin Alpha-E) / human integrin Beta-7 heterodimer on cells (human, UniProt P38570 19-1179; P26010 20-798); experiment: cell ELISA on CHO.K1-hCD103/beta7 cells, OD450-620, upper left panel
T2 construct: The same id is used for native CD103 on human CD103+CD8+ T cells (tumor digests, TGF-beta induced T cells); the assay field tells which cells; also called hCD103/hBeta7; CHO.K1-hCD103/hBeta7
T2 sequence (P38570 19-1179 limits assumed, chain 1 of 2): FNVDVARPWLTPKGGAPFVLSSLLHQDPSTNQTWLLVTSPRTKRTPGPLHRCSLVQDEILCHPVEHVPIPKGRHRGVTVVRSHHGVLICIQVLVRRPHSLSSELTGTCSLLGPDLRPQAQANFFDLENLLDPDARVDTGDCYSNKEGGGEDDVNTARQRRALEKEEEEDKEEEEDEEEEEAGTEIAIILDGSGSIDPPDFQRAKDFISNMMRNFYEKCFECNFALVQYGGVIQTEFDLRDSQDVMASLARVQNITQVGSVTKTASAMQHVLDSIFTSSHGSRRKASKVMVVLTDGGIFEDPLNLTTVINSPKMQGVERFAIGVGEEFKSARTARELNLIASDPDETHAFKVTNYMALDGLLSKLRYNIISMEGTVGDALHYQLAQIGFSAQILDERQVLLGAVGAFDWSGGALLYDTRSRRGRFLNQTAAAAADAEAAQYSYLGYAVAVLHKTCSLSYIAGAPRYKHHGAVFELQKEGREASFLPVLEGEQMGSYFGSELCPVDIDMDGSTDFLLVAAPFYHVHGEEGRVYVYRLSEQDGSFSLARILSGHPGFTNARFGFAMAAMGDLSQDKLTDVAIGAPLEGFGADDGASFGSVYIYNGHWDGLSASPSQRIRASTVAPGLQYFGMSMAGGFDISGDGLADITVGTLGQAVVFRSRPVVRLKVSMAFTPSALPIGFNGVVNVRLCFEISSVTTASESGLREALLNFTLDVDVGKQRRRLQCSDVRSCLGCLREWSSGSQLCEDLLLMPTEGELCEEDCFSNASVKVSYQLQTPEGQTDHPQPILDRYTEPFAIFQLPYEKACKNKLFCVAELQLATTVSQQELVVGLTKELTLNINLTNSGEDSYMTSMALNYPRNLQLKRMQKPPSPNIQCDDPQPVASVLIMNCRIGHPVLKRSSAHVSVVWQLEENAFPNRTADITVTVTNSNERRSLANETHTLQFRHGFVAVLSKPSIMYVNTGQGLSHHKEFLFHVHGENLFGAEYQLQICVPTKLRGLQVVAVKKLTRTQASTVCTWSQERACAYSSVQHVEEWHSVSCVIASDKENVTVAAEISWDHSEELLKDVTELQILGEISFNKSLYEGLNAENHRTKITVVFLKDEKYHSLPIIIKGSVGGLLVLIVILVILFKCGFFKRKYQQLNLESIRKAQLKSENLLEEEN
T2 sequence (P26010 20-798 limits assumed, chain 2 of 2): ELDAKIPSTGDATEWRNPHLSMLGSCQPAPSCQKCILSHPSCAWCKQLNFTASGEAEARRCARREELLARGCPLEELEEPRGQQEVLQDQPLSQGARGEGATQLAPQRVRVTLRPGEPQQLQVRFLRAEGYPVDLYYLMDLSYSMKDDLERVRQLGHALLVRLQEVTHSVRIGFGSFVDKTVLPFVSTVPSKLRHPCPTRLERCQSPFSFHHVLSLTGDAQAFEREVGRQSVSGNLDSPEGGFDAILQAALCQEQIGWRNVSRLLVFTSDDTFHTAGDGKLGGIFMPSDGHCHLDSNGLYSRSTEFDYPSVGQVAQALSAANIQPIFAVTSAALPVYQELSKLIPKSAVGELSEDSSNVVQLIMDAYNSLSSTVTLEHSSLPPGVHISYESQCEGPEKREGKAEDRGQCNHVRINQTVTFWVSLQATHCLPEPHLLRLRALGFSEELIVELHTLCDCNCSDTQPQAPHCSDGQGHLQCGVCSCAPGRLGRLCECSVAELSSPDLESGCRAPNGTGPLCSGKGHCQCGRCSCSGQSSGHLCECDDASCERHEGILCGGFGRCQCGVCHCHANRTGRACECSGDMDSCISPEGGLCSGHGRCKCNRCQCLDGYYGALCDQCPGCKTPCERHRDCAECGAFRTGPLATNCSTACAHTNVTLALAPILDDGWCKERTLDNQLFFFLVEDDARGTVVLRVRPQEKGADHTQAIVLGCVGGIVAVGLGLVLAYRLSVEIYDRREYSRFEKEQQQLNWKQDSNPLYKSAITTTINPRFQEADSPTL

B1 and B3 are the same in “EC50 (read off the curve)” value: roughly 0.02 µg/mL for the first, roughly 0.02 µg/mL for the second.

With B4 the “EC50 (read off the curve)” value was roughly 0.02 µg/mL.

target: T2, human CD103 (integrin Alpha-E) / human …; experiment: flow cytometry competition on CD103+CD8+ T cells; pre-incubation with unlabeled 01A; table n=2
Description: (§1) Percentage binding of fluorescently labeled mAbs was determined using flow cytometry. Maximum binding was set at 100%.
(§2) Percentage binding of fluorescently labeled mAbs was determined using flow cytometry. Maximum binding was set at 100%

Compared with B1, B2 is lower in “% binding of the fluorescently labeled mAb (IgG pre-incubation = 100)” value (“% binding” below): 2.2% for the first, 0.7% for the second.

First: B3
Second: B4
The “% binding” value of the first is lower: 2.2% for the first, 99.1% for the second.

target: T2, human CD103 (integrin Alpha-E) / human …; experiment: flow cytometry competition on CD103+CD8+ T cells; pre-incubation with unlabeled 03A; table n=1
Description: as §1, §2

Going from B1 to B2, the “% binding” value falls from 100% to 94.4%.

Going from B3 to B4, the “% binding” value rises from 96.7% to 101%.

target: T2, human CD103 (integrin Alpha-E) / human …; experiment: flow cytometry competition on CD103+CD8+ T cells; pre-incubation with unlabeled 05A; table n=1
Description: as §1, §2

Going from B1 to B2, the “% binding” value falls from 13.1% to 7.9%.

First: B3
Second: B4
The “% binding” value of the first is lower: 71.8% for the first, 101% for the second.

target: T2, human CD103 (integrin Alpha-E) / human …; experiment: flow cytometry competition on CD103+CD8+ T cells; pre-incubation with unlabeled 06A; table n=1
Description: as §1, §2

Going from B1 to B2, the “% binding” value falls from 101% to 73.2%.

First: B3
Second: B4
The “% binding” value of the first is higher: 81.8% for the first, 18.7% for the second.

target: T2, human CD103 (integrin Alpha-E) / human …; experiment: flow cytometry competition on CD103+CD8+ T cells; pre-incubation with unlabeled 06A; table n=2
Description: as §1, §2

Compared with B1, B2 is lower in “% binding” value: 87.4% for the first, 81.6% for the second.

First: B3
Second: B4
The “% binding” value of the first is higher: 90.9% for the first, 18.9% for the second.

target: T2, human CD103 (integrin Alpha-E) / human …; experiment: flow cytometry competition on CD103+CD8+ T cells; pre-incubation with unlabeled 07A; table n=1
Description: as §2

Going from B1 to B2, the “% binding” value falls from 66.3% to 33.7%.

Compared with B3, B4 is higher in “% binding” value: 27.5% for the first, 93.2% for the second.

target: T2, human CD103 (integrin Alpha-E) / human …; experiment: flow cytometry competition on CD103+CD8+ T cells; pre-incubation with unlabeled IgG (f2); table n=1
Description: as §2

B1 and B2 are the same in “% binding” value: 100% for the first, 100% for the second.

B3 and B4 are the same in “% binding” value: 100% for the first, 100% for the second.

target: T2, human CD103 (integrin Alpha-E) / human …; experiment: flow cytometry competition on CD103+CD8+ T cells; pre-incubation with unlabeled BERACT; table n=1
Description: as §1, §2

First: B1
Second: B2
The “% binding” value of the first is higher: 4.2% for the first, 0.7% for the second.

First: B3
Second: B4
The “% binding” value of the first is lower: 2.5% for the first, 84.9% for the second.

target: T2, human CD103 (integrin Alpha-E) / human …; experiment: flow cytometry competition on CD103+CD8+ T cells; pre-incubation with unlabeled BERACT; table n=2
Description: as §1, §2

First: B1
Second: B2
The “% binding” value of the first is higher: 4.9% for the first, 1% for the second.

First: B3
Second: B4
The “% binding” value of the first is lower: 4% for the first, 109% for the second.

Source: patent US20230183354A1 (IMMIOS HOLDING B V, published 2023)
